From paper PMC7782713, “Structural basis of Naa20 activity towards a canonical NatB substrate” (Communications Biology, 2021)
One block for each molecule: values may come before it. No end group written: not given here. CoA = coenzyme A

Columns and labels:
[1] = molecular target: Chaetomium thermophilum Naa25, auxiliary subunit of NatB, full length (Chaetomium thermophilum); assay: SEC-MALS; Superdex 200 10/300 in buffer G (20 mM HEPES pH 7.5, 200 mM NaCl); CtNatB (0.12 mg, co-expressed and purified as a complex), CtNaa25 (0.13 mg) and CtNaa20 (0.1 mg) injected one after the other
[2] = molecular target: Chaetomium thermophilum Naa20 residues 1-166 (predicted GNAT fold) (Chaetomium thermophilum); assay: ITC; CtNaa20_(1-166) 25-35 uM in the cell, CtNaa25 250-400 uM in the syringe, 20 °C, buffer G (20 mM HEPES pH 7.5, 200 mM NaCl), single-site binding model, triplicates
CtNatB = molecular target: T1, CtNatB (Thermochaetoides thermophila, UniProt G0SGG4); assay: nanoDSF thermal shift; type: binding; details: 1/64 protein/ligand; buffer G pH 7.5
T1 construct: gene CTHT_0066240; co-expressed in E. coli Rosetta II (DE3); CtNaa20 with C-terminal His6, CtNaa25 with TEV-cleavable N-terminal His6; with N-alpha-acetyltransferase 25 (N-terminal acetyltransferase B complex auxiliary subunit NAA25)

CtNaa20 [3] = molecular target: T2, CtNaa20 (Thermochaetoides thermophila, UniProt G0SGG4); assay: nanoDSF thermal shift; type: binding; details: varying ligand excess; buffer G pH 7.5
T2 construct: gene CTHT_0066240; full length, C-terminal His6 (pET21d), E. coli Rosetta II (DE3); residues 2-190 built in the crystal structure

[4] = molecular target: Chaetomium thermophilum Naa20, catalytic subunit of NatB, full length (Chaetomium thermophilum)
[5] = molecular target: Chaetomium thermophilum NatB complex (CtNaa25 with CtNaa20) (Chaetomium thermophilum)
CtNaa20 [6] = molecular target: T3, CtNaa20 (Chaetomium thermophilum, UniProt G0SGG4 1-235); assay: EMSA; 5-20 uM protein, 5 uM RNA; 20 mM Tris pH 8, 200 mM NaCl, 10 mM MgCl2, 10 mM KCl, 20% glycerol, 20 C, 30 min; 0.8% agarose gel in 0.5x TB; details: protein: recombinant; tags: C-terminal His6
T3 sequence: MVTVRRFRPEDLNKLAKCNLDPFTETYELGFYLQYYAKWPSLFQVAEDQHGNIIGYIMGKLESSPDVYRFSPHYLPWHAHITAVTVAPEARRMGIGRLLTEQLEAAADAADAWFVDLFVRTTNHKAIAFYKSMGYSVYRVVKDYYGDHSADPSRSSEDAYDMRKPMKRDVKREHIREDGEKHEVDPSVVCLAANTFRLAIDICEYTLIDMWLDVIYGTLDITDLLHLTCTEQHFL

[7] = molecular target: T4, Chaetomium thermophilum NatB complex (CtNaa25 with CtNaa20) (Chaetomium thermophilum); assay: enzyme inhibition kinetics (acetylation microplate assay); 500 nM enzyme; mode of inhibition and inhibitor constant of CoA-Ac-MDEL in the acetylation of MDEL; competitive inhibitor; triplicates; details: both partners purified
T4 chain: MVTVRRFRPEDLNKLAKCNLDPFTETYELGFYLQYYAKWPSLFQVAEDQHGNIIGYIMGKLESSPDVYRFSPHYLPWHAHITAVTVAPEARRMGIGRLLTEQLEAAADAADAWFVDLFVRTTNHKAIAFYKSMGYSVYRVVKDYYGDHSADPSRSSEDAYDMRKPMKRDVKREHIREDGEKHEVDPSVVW

[8] = molecular target: T4, Chaetomium thermophilum NatB complex …; assay: cell-based or functional assay

- stoichiometry N [1]: 1
Molecule: Chaetomium thermophilum Naa20, catalytic subunit of NatB, full length (enzyme)

- Kd [2]: 17.8 nM
- dH [2]: 5.4 kcal/mol
- stoichiometry N [2]: 1
Molecule: Chaetomium thermophilum Naa25, auxiliary subunit of NatB, full length (natural protein)

- Tm without to with ligand (CtNatB): 58 to 62 °C
Molecule: CC(=O)SCCNC(=O)CCNC(=O)[C@H](O)C(C)(C)COP(=O)(O)OP(=O)(O)OC[C@H]1O[C@@H](n2cnc3c(N)ncnc32)[C@H](O)[C@@H]1OP(=O)(O)O [AcCoA]
- Tm (CtNaa20 [3]): Binding of both ligands to CtNatB and CtNaa20 is indicated by protein stabilization

- Km for MDEL in the acetylation assay (constant AcCoA, varying MDEL) [4]: 4400 µM
- Km for MDEL in the acetylation assay (constant AcCoA, varying MDEL) [5]: 232 µM
Molecule: MDEL peptide (canonical NatB substrate)

B1: CtES27 fragment (tip of expansion segment 27) (structured_RNA)
RNA: GGGCCUCUAGCCGGGCAACCGGCCGGCGGCUC
- binding result (CtNaa20 [6]): no binding

- Ki [7]: 410 ± 140 nM
- IC50 of the inhibition of acetylation by CtNaa20 alone [4]: 6500 nM
- half-maximum inhibitor concentration (IC50) of the NatB mediated acetylation of MDEL [8]: 1560 nM
B2: CoA-Ac-MDEL bisubstrate analog (peptide MDEL joined to coenzyme A through an acetyl bridge) (peptide)
peptide: {CoA-Ac}-MDEL
notes: peptide part of the bisubstrate analog, the canonical NatB substrate MDEL; A tetrapeptide conjugate of 1314 Da; also called MDEL (peptide part M1pD2pE3pL4p); source: synthetic peptide (solid phase), bromo-acetylated and coupled to coenzyme A, purified by reverse phase HPLC
